In patent US20030129189A1, “Tumor necrosis factor-gamma” (priority 1994, published 2003):

What was measured:
Assay in all cases: flow cytometry on transiently transfected cells
[1] = molecular target: T1, 4-1BB on transiently transfected cells (UniProt Q07011 24-255)
T1 construct: whole, on cells
Experimental: (§1) One million cells, in 0.1 ml of FACS buffer (PBS, 0.1% BSA, 0.1% NaN₃), were incubated with 0.1-1 microgram of protein or antibody at RT for 15 min. The cells were washed with 3 ml of FACS buffer, reacted with biotinylated primary antibody, and stained with PE-conjugated secondary antibody at RT for 15 min. Cells were then washed again, resuspended in 0.5 microgram/ml of propidium iodide, and live cells were gated and analyzed on a FACScan using the CellQuest software (BD Biosciences).

[2] = molecular target: T2, CD30 on transiently transfected cells (UniProt P28908 19-595, limits assumed)
T2 construct: whole, on cells
T2 sequence (looked up): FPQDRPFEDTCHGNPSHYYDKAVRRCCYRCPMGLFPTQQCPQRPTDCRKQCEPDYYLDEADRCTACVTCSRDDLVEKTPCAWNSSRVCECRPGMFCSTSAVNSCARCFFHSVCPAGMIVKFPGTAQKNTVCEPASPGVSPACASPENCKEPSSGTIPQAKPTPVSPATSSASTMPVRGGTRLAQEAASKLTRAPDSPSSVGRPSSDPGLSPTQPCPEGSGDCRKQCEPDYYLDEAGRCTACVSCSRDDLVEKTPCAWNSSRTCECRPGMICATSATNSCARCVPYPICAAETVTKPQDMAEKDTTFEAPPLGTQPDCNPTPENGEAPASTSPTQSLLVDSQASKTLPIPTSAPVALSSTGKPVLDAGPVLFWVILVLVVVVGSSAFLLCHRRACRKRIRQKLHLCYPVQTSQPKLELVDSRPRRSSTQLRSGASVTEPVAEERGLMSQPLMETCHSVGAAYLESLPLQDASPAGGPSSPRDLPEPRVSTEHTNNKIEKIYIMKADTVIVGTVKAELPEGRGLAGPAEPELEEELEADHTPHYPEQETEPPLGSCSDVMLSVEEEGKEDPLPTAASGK
Experimental: as §1

[3] = molecular target: T3, BCMA on transiently transfected cells (UniProt Q02223 1-184, limits assumed)
T3 construct: whole, on cells
T3 sequence (looked up): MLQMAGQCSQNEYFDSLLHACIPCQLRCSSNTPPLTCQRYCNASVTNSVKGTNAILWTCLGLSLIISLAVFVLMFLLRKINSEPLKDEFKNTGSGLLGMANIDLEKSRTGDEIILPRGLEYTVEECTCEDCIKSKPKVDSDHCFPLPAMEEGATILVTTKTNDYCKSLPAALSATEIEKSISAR
Experimental: as §1

[4] = molecular target: T4, DR5 on transiently transfected cells (UniProt O14763 56-440, limits assumed)
T4 construct: whole, on cells
Experimental: as §1

[5] = molecular target: T5, DR6 on transiently transfected cells (UniProt O75509 42-655, limits assumed)
T5 construct: whole, on cells
T5 sequence (looked up): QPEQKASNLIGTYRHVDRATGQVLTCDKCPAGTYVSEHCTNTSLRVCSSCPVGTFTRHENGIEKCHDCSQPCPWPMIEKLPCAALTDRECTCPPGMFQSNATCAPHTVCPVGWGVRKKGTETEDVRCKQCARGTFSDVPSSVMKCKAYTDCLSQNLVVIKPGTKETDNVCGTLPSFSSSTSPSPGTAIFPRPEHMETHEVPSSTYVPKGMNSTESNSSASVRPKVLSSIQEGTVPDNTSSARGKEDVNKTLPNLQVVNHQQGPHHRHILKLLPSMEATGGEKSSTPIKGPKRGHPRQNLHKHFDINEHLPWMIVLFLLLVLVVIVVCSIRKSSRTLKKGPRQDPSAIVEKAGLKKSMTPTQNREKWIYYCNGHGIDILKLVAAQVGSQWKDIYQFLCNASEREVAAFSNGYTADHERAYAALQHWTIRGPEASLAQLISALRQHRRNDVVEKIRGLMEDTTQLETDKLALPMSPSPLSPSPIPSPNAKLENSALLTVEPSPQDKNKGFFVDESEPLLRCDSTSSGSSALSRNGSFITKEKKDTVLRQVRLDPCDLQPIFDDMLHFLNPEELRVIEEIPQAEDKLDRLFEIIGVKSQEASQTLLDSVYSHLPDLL
Experimental: as §1

[6] = molecular target: T6, RANK on transiently transfected cells (UniProt Q9Y6Q6 30-616, limits assumed)
T6 construct: whole, on cells
T6 sequence (looked up): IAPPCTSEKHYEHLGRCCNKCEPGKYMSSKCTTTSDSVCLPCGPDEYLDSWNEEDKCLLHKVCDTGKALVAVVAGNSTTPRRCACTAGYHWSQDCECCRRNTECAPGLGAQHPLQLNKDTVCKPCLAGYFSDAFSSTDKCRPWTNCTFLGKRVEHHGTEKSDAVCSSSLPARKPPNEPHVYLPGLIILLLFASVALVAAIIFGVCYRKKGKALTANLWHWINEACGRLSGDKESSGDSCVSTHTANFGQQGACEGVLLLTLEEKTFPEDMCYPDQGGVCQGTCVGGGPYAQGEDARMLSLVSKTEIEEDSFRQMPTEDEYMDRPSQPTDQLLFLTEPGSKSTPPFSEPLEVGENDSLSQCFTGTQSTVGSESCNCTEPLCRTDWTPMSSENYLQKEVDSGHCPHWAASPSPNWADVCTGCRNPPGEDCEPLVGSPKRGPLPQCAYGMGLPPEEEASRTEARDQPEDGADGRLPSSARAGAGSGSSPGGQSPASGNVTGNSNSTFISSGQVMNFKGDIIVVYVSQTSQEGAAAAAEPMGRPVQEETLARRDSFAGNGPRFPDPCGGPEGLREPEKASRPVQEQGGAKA
Experimental: as §1

[7] = molecular target: T7, HveA on transiently transfected cells (UniProt Q92956 39-283, limits assumed)
T7 construct: whole, on cells
T7 sequence (looked up): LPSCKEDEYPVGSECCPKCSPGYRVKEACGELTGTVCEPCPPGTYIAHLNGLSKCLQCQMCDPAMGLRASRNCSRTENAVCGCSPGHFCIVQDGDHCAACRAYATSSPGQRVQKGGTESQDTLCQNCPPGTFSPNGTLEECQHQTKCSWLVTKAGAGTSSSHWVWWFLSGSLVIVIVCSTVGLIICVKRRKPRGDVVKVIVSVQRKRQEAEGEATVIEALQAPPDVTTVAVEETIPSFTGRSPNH
Experimental: as §1

[8] = molecular target: T8, AITR on transiently transfected cells (UniProt Q9Y5U5 26-241, limits assumed)
T8 construct: whole, on cells
T8 sequence (looked up): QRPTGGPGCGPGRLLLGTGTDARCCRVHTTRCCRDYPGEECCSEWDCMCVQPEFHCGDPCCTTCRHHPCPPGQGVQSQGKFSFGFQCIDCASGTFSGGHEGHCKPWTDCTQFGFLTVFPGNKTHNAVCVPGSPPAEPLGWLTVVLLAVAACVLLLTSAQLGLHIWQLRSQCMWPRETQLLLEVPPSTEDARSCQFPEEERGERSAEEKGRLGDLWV
Experimental: as §1

Measured: binding result

T1 sequence (Q07011 24-255): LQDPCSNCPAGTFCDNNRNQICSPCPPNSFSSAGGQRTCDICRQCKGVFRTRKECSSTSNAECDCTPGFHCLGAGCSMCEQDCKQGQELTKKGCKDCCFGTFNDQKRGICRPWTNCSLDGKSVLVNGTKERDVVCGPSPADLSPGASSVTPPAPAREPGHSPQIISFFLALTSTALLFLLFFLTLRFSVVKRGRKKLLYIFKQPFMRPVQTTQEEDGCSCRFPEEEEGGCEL

B1: FLAG-tagged soluble TNF-gamma-beta (aa 72-251) (ligand)
chain: LKGQEFAPSHQQVYAPLRADGDKPRAHLTVVRQTPTQHFKNQFPALHWEHELGLAFTKNRMNYTNKFLLIPESGDYFIYSQVTFRGMTSECSEIRQAGRPNKPDSITVVITKVTDSYPEPTQLLMGTKSVCEVGSNWFQPIYLGAMFSLQEGDKLMVNVSDISLVDYTKEDKTFFGAFLL
notes: also called FLAG-TL1β; FLAG-TNF-gamma-beta; not shown: The N-terminal FLAG tag (pFLAG-CMV-1 vector) and any vector linker
no binding: all assays above
